The values below come from IntAct's records for PubMed 22193721.

B1: Beta-adrenergic receptor kinase 1 (Bos taurus (Bovine)), P21146 (parent)
chain: MADLEAVLADVSYLMAMEKSKATPAARASKKILLPEPSIRSVMQKYLEDRGEVTFEKIFSQKLGYLLFRDFCLKHLEEAKPLVEFYEEIKKYEKLETEEERLVCSREIFDTYIMKELLACSHPFSKSAIEHVQGHLVKKQVPPDLFQPYIEEICQNLRGDVFQKFIESDKFTRFCQWKNVELNIHLTMNDFSVHRIIGRGGFGEVYGCRKADTGKMYAMKCLDKKRIKMKQGETLALNERIMLSLVSTGDCPFIVCMSYAFHTPDKLSFILDLMNGGDLHYHLSQHGVFSEADMRFYAAEIILGLEHMHNRFVVYRDLKPANILLDEHGHVRISDLGLACDFSKKKPHASVGTHGYMAPEVLQKGVAYDSSADWFSLGCMLFKLLRGHSPFRQHKTKDKHEIDRMTLTMAVELPDSFSPELRSLLEGLLQRDVNRRLGCLGRGAQEVKESPFFRSLDWQMVFLQKYPPPLIPPRGEVNAADAFDIGSFDEEDTKGIKLLDSDQELYRNFPLTISERWQQEVAETVFDTINAETDRLEARKKTKNKQLGHEEDYALGKDCIMHGYMSKMGNPFLTQWQRRYFYLFPNRLEWRGEGEAPQSLLTMEEIQSVEETQIKERKCLLLKIRGGKQFVLQCDSDPELVQWKKELRDAYREAQQLVQRVPKMKNKPRSPVVELSKVPLIQRGSANGL
B2: Beta-adrenergic receptor kinase 1 (Bos taurus (Bovine)), P21146 (parent)
chain: B1 chain
partner: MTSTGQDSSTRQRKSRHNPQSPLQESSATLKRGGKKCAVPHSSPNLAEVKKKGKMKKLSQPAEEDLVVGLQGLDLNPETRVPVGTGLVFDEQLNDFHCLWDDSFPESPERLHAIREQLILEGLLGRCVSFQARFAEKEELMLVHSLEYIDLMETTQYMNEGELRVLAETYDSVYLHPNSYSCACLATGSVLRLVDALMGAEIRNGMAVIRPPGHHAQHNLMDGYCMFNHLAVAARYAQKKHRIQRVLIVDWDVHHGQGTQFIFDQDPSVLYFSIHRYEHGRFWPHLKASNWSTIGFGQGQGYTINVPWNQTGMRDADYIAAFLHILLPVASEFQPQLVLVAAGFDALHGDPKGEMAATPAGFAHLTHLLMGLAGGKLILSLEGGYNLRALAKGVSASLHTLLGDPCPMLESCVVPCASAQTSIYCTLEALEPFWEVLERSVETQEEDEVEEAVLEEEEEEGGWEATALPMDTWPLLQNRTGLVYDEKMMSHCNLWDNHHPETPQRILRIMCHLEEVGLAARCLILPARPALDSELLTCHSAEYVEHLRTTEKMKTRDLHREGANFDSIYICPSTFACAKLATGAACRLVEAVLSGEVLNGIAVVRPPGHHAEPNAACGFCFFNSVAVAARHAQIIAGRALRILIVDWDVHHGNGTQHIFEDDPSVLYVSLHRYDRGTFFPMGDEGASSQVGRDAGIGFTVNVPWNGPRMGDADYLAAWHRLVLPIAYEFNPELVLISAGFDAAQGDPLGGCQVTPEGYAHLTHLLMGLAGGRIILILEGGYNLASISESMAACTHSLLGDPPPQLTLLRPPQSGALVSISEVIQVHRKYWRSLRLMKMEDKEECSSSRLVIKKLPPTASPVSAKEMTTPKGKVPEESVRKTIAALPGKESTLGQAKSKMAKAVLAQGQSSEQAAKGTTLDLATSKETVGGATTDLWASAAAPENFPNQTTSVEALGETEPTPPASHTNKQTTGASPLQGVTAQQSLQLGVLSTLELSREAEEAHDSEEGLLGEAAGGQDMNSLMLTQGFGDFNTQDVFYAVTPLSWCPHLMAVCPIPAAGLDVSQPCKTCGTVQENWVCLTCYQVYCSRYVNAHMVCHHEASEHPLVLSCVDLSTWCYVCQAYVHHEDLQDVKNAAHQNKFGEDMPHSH

Variants of B1 are the subject of one test. As to conditions: with hdac6_human HDAC6, Q9UBN7.
Sequence of hdac6_human HDAC6, Q9UBN7 (Q9UBN7 whole entry): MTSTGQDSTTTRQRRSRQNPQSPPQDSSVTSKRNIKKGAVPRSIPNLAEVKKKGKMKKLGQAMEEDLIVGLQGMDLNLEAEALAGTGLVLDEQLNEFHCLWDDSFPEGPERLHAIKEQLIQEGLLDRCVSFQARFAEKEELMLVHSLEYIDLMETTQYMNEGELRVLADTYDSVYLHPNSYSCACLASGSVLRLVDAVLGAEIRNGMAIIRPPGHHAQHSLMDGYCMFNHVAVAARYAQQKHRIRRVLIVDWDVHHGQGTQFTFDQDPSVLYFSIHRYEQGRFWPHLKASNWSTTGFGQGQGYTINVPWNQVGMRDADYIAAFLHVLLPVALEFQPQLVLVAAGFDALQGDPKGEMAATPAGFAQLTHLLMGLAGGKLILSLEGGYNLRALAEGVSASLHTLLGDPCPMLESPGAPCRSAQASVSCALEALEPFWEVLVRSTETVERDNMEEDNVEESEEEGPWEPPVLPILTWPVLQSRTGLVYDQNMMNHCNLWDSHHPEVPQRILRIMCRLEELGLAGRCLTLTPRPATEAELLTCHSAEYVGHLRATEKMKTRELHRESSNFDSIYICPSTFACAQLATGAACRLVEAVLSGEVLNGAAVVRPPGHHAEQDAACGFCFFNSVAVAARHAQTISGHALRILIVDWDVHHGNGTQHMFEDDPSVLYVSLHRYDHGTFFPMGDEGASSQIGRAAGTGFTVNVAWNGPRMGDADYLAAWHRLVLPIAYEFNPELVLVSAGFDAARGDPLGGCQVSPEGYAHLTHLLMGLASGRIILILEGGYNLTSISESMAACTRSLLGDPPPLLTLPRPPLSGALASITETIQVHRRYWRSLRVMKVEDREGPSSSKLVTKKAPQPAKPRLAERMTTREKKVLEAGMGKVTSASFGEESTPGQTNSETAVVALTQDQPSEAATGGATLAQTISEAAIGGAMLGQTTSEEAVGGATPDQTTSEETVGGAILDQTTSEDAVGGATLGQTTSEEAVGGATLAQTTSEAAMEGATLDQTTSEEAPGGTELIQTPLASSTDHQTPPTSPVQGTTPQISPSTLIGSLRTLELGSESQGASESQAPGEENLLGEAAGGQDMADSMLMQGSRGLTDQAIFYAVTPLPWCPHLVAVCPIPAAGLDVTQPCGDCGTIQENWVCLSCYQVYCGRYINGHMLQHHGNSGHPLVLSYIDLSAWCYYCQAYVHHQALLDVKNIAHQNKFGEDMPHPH
As to K220R, the “effect of a mutation on the interaction” value was “disrupting interaction”.

In the next test the parent is B1. The conditions noted are these: with hdac6_human HDAC6, Q9UBN7. This is another data set of the same source.
As for S670A, the “effect of a mutation on the interaction” value is on record as “decreasing interaction”.

A further test covers variants of B2. As to conditions: with hdac6_mouse Hdac6, Q9Z2V5.
With K220R, the “effect of a mutation on the interaction” value is “increasing interaction”.
